Assay results: article PMC1525162 (BMC Pharmacology, 2006)
“Also recorded” adds a separate entry of the source. One block for each molecule: values may come before it. Bridge positions count the residues as written; N and C are the ends. Ends that are not written are not given here. Peptide text beside a SMILES is read from it.

Legend:
[1] = tested on: L24A, L34A and L24A,L34A CLR-RAMP1 heterodimers versus wild type; assay: Competition/saturation binding, leucine mutant CLRs compared with wild type; parameters: species or system human; details: L34A, L24A,L34A vs wild type CLR
Protocol: (§1) A crude cell membrane preparation was prepared as previously described. Briefly, HEK293T-RAMP1 membranes were prepared by scraping and transferring cells to a 50 mL conical tube using cold HBSS followed with two washings by centrifugation at 1000 × g using cold HBSS. The intact cell pellet was resuspended in 10 mL of 0.25 M sucrose containing a protease inhibitor cocktail consisting of 10μg/mL benzamidine, 10μg/mL leupeptin, and 20μg/mL phenylmethysulfonylfluoride. The cells were disrupted by freezing followed by Dounce homogenization of the thawed suspension using 20 strokes from a loose fitting (B) pestle. This mixture was then centrifuged at 1260 × g for 5 min at 4°C. Buffer A (20 mM HEPES, pH 7.5, 1.4 mM EGTA, 12.5 mM MgCl2, 10μg/mL benzamidine, 10μg/mL leupeptin, and 20μg/mL phenylmethysulfonylfluoride) was added to the supernatant and centrifuged again at 30,000 × g for 15 min at 4°C. The resultant pellet was kept, resuspended in buffer A then centrifuged once more at 30,000 × g for 15 min at 4°C. The final crude membrane pellet was resuspended in buffer A containing 10% glycerol and stored in aliquots at -70°C until used for radioligand binding. Protein concentrations were measured using the method of Bradford.
The radioligand binding protocol used for this study was performed as previously described. […] Binding was stopped by filtering the membranes though Whatman GF/C glass fiber filters, followed by 5 – 5 mL washes with cold buffer B (20 mM HEPES, pH 7.5, 1.4 mM EGTA, 12.5 mM MgCl2) to remove any unbound drug. Amounts of total and non-specific radiolabel bound to cell membranes were calculated from radioactive counts remaining on the glass fiber filters.

[2] = molecular target: wild type CLR-RAMP1 heterodimer (HEK293T-RAMP1 membranes) (Homo sapiens, UniProt O60894+Q16602); assay: Competition radioligand binding, wild type CLR; details: compared to Ki of CGRP
Protocol: as §1, with “The final crude membrane pellet was resuspended in buffer A containing 10% glycerol and stored in aliquots at -70°C until used for radioligand binding.” left out
The radioligand binding protocol used for this study was performed as previously described. […] Amounts of total and non-specific radiolabel bound to cell membranes were calculated from radioactive counts remaining on the glass fiber filters.

[3] = molecular target: wild type CLR-RAMP1 (transiently transfected HEK293T-RAMP1 cells) (Homo sapiens, UniProt O60894+Q16602); assay: cAMP generation, wild type CLR; format: cell-based
[4] = tested on: wild type and L24A, L34A, L24A,L34A CLR-RAMP1 (HEK293T-RAMP1 cells); assay: cAMP generation, wild type and leucine mutant CLRs compared
[5] = tested on: CGRP receptor; details: cited from earlier work
Excerpt: Briefly, this 37 amino acid neuropeptide can be divided into two distinct domains based upon its binding and agonistic properties for the receptor. […] Specifically, loss of the disulfide bridge connecting amino acids 2 and 7 negates all biological activity of the endogenous neuropeptide.

[6] = molecular target: CLR-RAMP1 heterodimer with the L34A CLR mutant (UniProt Q16602); assay: radioligand binding; saturation binding: increasing [125I-Tyr]CGRP(8–37) on crude membranes of transiently transfected HEK293T-RAMP1 cells, 37°C, buffer A (20 mM HEPES pH 7.5, […] EGTA, 12.5 mM MgCl2, protease inhibitors) plus 0.1% BSA, 1 μM CGRP for non-specific binding, filtration on GF/C filters
[7] = molecular target: CLR-RAMP1 heterodimer with the L24A,L34A CLR double mutant (UniProt Q16602); assay: as above
[8] = molecular target: CLR-RAMP1 heterodimer with the L24A CLR mutant (UniProt Q16602); assay: as above
[9] = molecular target: CLR-RAMP1 heterodimer, wild type calcitonin-like receptor (CLR) with receptor-activity-modifying protein-1 (RAMP1) (UniProt Q16602); assay: as above
[10] = molecular target: T1, CLR-RAMP1 heterodimer with the L24A,L34A CLR double mutant, Q16602; assay: radioligand binding; competition: increasing unlabeled peptide against specific [125I-Tyr]CGRP(8–37) binding on crude membranes of transiently transfected HEK293T-RAMP1 cells, same buffer as the saturation binding; Ki from IC50 by the method of Cheng and Prusoff
T1 chain 1: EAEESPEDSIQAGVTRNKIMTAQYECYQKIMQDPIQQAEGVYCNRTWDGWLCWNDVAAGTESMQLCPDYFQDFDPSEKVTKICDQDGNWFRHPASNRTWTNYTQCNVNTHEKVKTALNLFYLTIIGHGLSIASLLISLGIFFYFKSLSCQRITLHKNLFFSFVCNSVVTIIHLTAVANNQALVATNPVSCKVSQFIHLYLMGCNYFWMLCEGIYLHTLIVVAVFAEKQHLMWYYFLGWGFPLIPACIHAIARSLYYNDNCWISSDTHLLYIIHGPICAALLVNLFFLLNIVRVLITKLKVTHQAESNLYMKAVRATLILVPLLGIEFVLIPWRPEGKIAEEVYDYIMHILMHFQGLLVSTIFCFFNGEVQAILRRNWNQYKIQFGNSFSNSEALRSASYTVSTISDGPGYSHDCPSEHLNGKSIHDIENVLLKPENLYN
T1 chain 2: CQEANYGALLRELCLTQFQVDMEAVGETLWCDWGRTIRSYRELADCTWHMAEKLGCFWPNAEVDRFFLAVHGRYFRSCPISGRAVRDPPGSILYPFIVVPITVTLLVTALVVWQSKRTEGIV

[11] = molecular target: T2, CLR-RAMP1 heterodimer with the L24A CLR mutant, Q16602; assay: as above
T2 chain 1: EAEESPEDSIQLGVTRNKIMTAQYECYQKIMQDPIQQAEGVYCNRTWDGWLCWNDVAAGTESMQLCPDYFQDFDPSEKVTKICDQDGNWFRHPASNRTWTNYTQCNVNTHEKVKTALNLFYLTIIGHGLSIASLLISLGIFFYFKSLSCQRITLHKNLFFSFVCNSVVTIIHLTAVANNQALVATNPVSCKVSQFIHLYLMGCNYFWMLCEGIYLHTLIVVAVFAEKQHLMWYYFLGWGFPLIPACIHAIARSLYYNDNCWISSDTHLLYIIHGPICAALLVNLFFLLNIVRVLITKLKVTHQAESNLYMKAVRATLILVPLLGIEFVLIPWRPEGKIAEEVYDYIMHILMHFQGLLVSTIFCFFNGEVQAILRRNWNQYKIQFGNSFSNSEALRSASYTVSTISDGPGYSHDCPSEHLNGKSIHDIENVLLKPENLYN
T2 chain 2: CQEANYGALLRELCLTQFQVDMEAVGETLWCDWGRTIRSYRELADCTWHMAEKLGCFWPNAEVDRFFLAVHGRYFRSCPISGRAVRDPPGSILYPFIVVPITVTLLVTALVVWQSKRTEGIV

[12] = molecular target: T3, CLR-RAMP1 heterodimer with the L34A CLR mutant, Q16602; assay: as above
T3 chain 1: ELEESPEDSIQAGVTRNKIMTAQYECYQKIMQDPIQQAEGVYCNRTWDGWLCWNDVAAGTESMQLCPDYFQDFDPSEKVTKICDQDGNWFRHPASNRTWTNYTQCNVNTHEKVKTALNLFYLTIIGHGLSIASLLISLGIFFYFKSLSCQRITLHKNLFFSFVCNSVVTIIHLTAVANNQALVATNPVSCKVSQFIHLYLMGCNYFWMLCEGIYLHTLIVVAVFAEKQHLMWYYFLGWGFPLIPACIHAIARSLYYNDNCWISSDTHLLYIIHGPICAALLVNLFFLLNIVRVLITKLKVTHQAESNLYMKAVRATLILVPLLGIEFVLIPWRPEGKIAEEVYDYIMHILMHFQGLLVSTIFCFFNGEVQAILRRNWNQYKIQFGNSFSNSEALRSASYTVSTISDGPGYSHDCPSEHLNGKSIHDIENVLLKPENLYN
T3 chain 2: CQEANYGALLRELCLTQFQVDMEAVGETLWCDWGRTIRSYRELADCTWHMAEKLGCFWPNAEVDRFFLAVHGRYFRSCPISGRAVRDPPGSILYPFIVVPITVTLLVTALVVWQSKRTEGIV

[13] = molecular target: T4, CLR-RAMP1 heterodimer, wild type calcitonin-like receptor (CLR) with receptor-activity-modifying protein-1 (RAMP1), Q16602; assay: as above
T4 chain 1: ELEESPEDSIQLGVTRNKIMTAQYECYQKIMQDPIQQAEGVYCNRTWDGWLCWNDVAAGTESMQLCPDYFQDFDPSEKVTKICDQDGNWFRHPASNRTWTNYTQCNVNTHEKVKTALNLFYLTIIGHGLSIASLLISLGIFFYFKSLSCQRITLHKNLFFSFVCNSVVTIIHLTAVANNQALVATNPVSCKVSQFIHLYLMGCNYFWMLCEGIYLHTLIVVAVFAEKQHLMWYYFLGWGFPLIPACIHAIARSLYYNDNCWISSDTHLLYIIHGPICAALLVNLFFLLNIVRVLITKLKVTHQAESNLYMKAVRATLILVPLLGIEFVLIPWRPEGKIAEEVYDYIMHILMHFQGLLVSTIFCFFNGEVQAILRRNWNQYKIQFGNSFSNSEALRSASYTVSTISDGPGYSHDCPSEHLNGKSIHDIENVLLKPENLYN
T4 chain 2: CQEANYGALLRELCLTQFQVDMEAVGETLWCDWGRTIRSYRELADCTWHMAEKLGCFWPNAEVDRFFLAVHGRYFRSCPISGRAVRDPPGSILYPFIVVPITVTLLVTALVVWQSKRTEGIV

[14] = molecular target: T1, CLR-RAMP1 heterodimer with the …
[15] = molecular target: T2, CLR-RAMP1 heterodimer with the L24A CLR …
[16] = molecular target: T3, CLR-RAMP1 heterodimer with the L34A CLR …
[17] = molecular target: T4, CLR-RAMP1 heterodimer, wild type …

Molecule: CC(C)C[C@H](NC(=O)CNC(=O)[C@H](C)NC(=O)[C@H](CC(C)C)NC(=O)[C@H](CCCNC(=N)N)NC(=O)[C@H](Cc1c[nH]cn1)NC(=O)[C@@H](NC(=O)[C@@H](NC(=O)[C@@H]1CSSC[C@H](NC(=O)[C@H](C)N)C(=O)N[C@@H](CC(=O)O)C(=O)N[C@@H]([C@@H](C)O)C(=O)N[C@@H](C)C(=O)N[C@@H]([C@@H](C)O)C(=O)N1)C(C)C)[C@@H](C)O)C(=O)N[C@@H](CC(C)C)C(=O)N[C@@H](CO)C(=O)N[C@@H](CCCNC(=N)N)C(=O)N[C@@H](CO)C(=O)O [CGRP(1–19)] (H-ACDTATCVTHRLAGLLSRS-OH; disulfide 2-7 (inferred); N-terminus assumed)
affinity at leucine mutants compared with wild type [1]: analogous to values calculated for all leucine CLR mutations
affinity for wild type CLR compared with CGRP [2]: significant loss of CGRP(1–19) affinity
maximal cAMP response ([3]; CGRP(1–36) compared with CGRP, CGRP(1–19) compared with CGRP(1–36) and CGRP): appreciably less
cAMP potency compared with CGRP, wild type ([3]; compared to CGRP): considerably less; also recorded: significantly less
cAMP potency at leucine mutants compared with wild type ([4]; L24A, L34A, L24A,L34A vs wild type CLR): no different; also recorded: no significant potency differences

Molecule: CGRP(8–37)
CGRP receptor affinity and activity ([5]; N-terminal truncated peptide): effective CGRP receptor antagonist having a high affinity for the receptor but devoid of any biological activity in itself
antagonism of cAMP response to CGRP(1–36) ([4]; 1μM CGRP(8–37) preincubated 30 min before 10μM CGRP(1–36), wild type and leucine CLR mutants): abolished the activity of 10μM CGRP(1–36); also recorded: blocked to basal levels

Molecule: des-F37-CGRP: CGRP with deletion of the C-terminal phenylalanine at position 37 (ACDTATCVTHRLAGLLSRSGGVVKNNFVPTNVGSKA-NH2; disulfide 2-7 (inferred); ends not checked; UniProt P06881 83-119, looked up, variant F37*)
affinity for native receptor compared with endogenous neuropeptide ([5]; not due to disruption of ligand structure): affinity loss

The next lines start with the values.

Kd [6]: 9 nM
Kd [7]: 9 nM
Kd [8]: 9 nM
Kd [9]: 0.9 nM
Molecule: [125I-Tyr]CGRP(8–37) (peptide)

Ki [10]: > 10000 nM
Ki [11]: > 10000 nM
Ki [12]: > 10000 nM
Ki [13]: > 10000 nM
EC50 of cAMP generation in transiently transfected HEK293T-RAMP1 cells [14]: 1600 nM
EC50 of cAMP generation in transiently transfected HEK293T-RAMP1 cells [15]: 2400 nM
EC50 of cAMP generation in transiently transfected HEK293T-RAMP1 cells [16]: 2200 nM
EC50 of cAMP generation in transiently transfected HEK293T-RAMP1 cells [17]: 2100 nM
B1: CGRP(1–19) (peptide)
chain: ACDTATCVTHRLAGLLSRS
modifications: not checked
